Consider eight molecules from EP2373335B1 (Eli Lilly and Company, dated 2016).

By % Inhibition is commonly meant the relative decrease from the control value, in per cent.

Assay [1] addresses T1, human ferroportin 1 (human, UniProt Q9NP59 1-571).
T1 sequence: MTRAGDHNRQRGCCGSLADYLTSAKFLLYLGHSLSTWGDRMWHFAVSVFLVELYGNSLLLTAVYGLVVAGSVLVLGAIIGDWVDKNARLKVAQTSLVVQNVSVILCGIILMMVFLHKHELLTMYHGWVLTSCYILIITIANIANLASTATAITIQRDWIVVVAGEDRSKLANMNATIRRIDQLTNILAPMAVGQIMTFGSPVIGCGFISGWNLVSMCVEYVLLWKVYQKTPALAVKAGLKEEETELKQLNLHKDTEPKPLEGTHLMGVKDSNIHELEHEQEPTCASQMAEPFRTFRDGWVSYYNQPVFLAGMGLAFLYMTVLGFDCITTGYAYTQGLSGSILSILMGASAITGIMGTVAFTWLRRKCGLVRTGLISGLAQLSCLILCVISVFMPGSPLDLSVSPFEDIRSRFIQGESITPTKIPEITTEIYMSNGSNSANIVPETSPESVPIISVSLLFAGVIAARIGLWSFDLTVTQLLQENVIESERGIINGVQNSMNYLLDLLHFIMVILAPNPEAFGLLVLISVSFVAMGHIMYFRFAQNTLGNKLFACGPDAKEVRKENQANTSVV
The experiment in a line: cell-based or functional assay.

Assay [2] deals with T2, FPN1-GFP (human, UniProt Q9NP59 1-571, A GFP reporter is fused to the C terminus of FPN1. Its letters are not given, so it is left out.).
T2 sequence: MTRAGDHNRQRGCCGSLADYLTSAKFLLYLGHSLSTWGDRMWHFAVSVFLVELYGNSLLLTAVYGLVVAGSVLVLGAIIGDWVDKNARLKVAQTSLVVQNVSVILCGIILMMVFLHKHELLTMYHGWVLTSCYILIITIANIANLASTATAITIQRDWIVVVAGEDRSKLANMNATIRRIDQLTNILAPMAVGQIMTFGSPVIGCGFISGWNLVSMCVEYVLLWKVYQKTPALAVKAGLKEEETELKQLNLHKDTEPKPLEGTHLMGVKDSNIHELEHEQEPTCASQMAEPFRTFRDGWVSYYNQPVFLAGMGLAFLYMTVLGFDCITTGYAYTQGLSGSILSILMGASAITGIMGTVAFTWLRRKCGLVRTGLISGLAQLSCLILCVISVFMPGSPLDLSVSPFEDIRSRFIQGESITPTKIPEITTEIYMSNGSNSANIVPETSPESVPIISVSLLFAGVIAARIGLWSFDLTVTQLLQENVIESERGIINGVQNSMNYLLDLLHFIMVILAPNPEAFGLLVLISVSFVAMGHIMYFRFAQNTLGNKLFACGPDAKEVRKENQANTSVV
The assay is described as follows: cell-based or functional assay.

Assay [3] deals with T2, FPN1-GFP. The experiment in a line: cell-based or functional assay. This is another data set of the same source.
The target in assay [4] is T2, FPN1-GFP. The assay is described as follows: SPR (Biacore T100) at 37 °C; FPN1-GFP captured on rabbit anti-GFP antibody; KD of Fab 1G9 against KD of Fab 34A9.
In assay [5] the target is T1, human ferroportin 1. The assay is described as follows: inhibition of 30 nM biotinylated hepcidin binding to FPN/293 cells, ELISA read-out; antibody at 7.8 nM; mean. On the technique in general: ELISA stands for enzyme-linked immunosorbent assay.
For assay [6], the target named is T1, human ferroportin 1. The experiment in a line: inhibition of 30 nM biotinylated hepcidin binding to FPN/293 cells, ELISA read-out; antibody at 125 nM; mean.
The target in assay [7] is T1, human ferroportin 1. The experiment in a line: inhibition of 30 nM biotinylated hepcidin binding to FPN/293 cells, ELISA read-out; antibody at 500 nM; mean.
Assay [8] deals with T1, human ferroportin 1. The experiment in a line: inhibition of 30 nM biotinylated hepcidin binding to FPN/293 cells, ELISA read-out; antibody at 31.25 nM; mean.
The target in assay [9] is T1, human ferroportin 1. The experiment in a line: inhibition of 30 nM biotinylated hepcidin binding to FPN/293 cells, ELISA read-out; antibody at 2000 nM; mean.

In [1], “Mouse IgG1, a negative control (antibody)” registered a % Inhibition; ferritin in Caco-2 cells with 100 nM hepcidin; 6.25 µg/mL mIgG1 of 0%, a % Inhibition; ferritin in Caco-2 cells with 100 nM hepcidin; 12.5 µg/mL mIgG1 of 0%, a % Inhibition; ferritin in Caco-2 cells with 100 nM hepcidin; 25 µg/mL mIgG1 of 7.2% and a % Inhibition; ferritin in Caco-2 cells with 100 nM hepcidin; 50 µg/mL mIgG1 of 0%. In assay [1], this molecule displayed a % Inhibition; ferritin in Caco-2 cells with 100 nM hepcidin; 100 µg/mL mIgG1 of 3.5%, a % Inhibition; ferritin in Caco-2 cells with 100 nM hepcidin; 200 µg/mL mIgG1 of 11.6%, a Ferritin (ng)/ protein (µg); Caco-2 cells with 100 nM hepcidin; 6.25 µg/mL mIgG1 of 10.4 ng/µg and a Ferritin (ng)/ protein (µg); Caco-2 cells with 100 nM hepcidin; 12.5 µg/mL mIgG1 of 10 ng/µg. In addition, in [1], the Ferritin (ng)/ protein (µg); Caco-2 cells with 100 nM hepcidin; 25 µg/mL mIgG1 is 9.6 ng/µg, the Ferritin (ng)/ protein (µg); Caco-2 cells with 100 nM hepcidin; 50 µg/mL mIgG1 was found to be 10.1 ng/µg, the Ferritin (ng)/ protein (µg); Caco-2 cells with 100 nM hepcidin; 100 µg/mL mIgG1 is 9.78 ng/µg and the Ferritin (ng)/ protein (µg); Caco-2 cells with 100 nM hepcidin; 200 µg/mL mIgG1 turned out to be 9.4 ng/µg.

B1: Mab 34A9 (antibody, mouse IgG1, kappa, V domains shown)
VH: QVQLKQSGAELVRPGTSVKVSCKASGYAFTNFLIEWLKQRPGQGLEWIGTINPETGGTKYNEKFRGKATLTADKSSSTAYMQLNSLTSDDSAVYFCVREFFDYWGQGTSLTVSS
VL: ETTVTQSPSYLAASPGETITINCRASKSISKYLAWFQEKPGKTNKLLIYAGSTLHSGIPSRFSGSGSGTDFTLTISSLEPEDFAMYYCQQHNEYPYTFGGGTKLELKR
Turning to B1, in assay [2], the “Percent (%) Inhibition of Mature Human Hepcidin-induced Internalization and Degradation In Vitro; Mab at 7.4 nM” value (“Percent (%) Inhibition … at 7.4 nM” below) was determined as 4.8%; the “Percent (%) Inhibition of Mature Human Hepcidin-induced Internalization and Degradation In Vitro; Mab at 22 nM” value (“Percent (%) Inhibition … at 22 nM” below) is 14.1%; the “Percent (%) Inhibition of Mature Human Hepcidin-induced Internalization and Degradation In Vitro; Mab at 67 nM” value (shortened to “Percent (%) Inhibition … at 67 nM”) was determined as 23.6%; the “Percent (%) Inhibition of Mature Human Hepcidin-induced Internalization and Degradation In Vitro; Mab at 200 nM” value (“Percent (%) Inhibition … at 200 nM” for short) worked out at 30.8%. The “Percent (%) Inhibition of Mature Human Hepcidin-induced Internalization and Degradation In Vitro; Mab at 600 nM” value (“Percent (%) Inhibition … at 600 nM” for short) in [2] worked out at 39%. Further, in [3], the “Relative IC50” value was found to be 58.9 nM; the “Top % Inhibition (hepcidin-25-induced internalization and degradation of FPN1-GFP)” value (“Top % Inhibition” for short) worked out at 55.2%.

B2: Fab 1G9 (Fab, V domains shown)
VH: QVQLKQSGAELVRPGTSVKVSCKASGYAFTSFLIEWLKQRPGQGLEWIGTINPRTGGTKYNEKFRGKATLTADKSSSTAYMQLNSLTSDDSAVYFCVREFFDYWGQGTSLTVSS
VL: ETTVTQSPSYLAASPGETITINCRASKSISKYLAWFQEKPGKTNKLLIYAGSKLHSGIPSRFSGSGSGTDFTLTISSLEPEDFAMYYCFQHNEYPYTFGGGTKLELK
notes: also called mouse 1G9; mouse Fab 1G9
In the case of B2, the “fold improvement in binding affinity against Fab 34A9” value in [4] is roughly 5 fold.

B3: Mab 1G9 (antibody, mouse IgG1, kappa, V domains shown)
VH: QVQLKQSGAELVRPGTSVKVSCKASGYAFTSFLIEWLKQRPGQGLEWIGTINPRTGGTKYNEKFRGKATLTADKSSSTAYMQLNSLTSDDSAVYFCVREFFDYWGQGTSLTVSS
VL: ETTVTQSPSYLAASPGETITINCRASKSISKYLAWFQEKPGKTNKLLIYAGSKLHSGIPSRFSGSGSGTDFTLTISSLEPEDFAMYYCFQHNEYPYTFGGGTKLELKR
Regarding B3, in [2], the “Percent (%) Inhibition … at 7.4 nM” value came out at 24.3%; the “Percent (%) Inhibition … at 22 nM” value worked out at 49.9%; the “Percent (%) Inhibition … at 67 nM” value came out at 61.8%; the “Percent (%) Inhibition … at 200 nM” value amounted to 62.4%. Further, the “Percent (%) Inhibition … at 600 nM” value in assay [2] worked out at 67.9%. Further, in assay [3], the “Absolute IC50” value turned out to be 18.8 nM; the “Relative IC50” value amounted to 9.2 nM; the “Top % Inhibition” value stood at 69%.

B4: Mab 4A10-3 (antibody, human IgG4 S228P, kappa, F234A L235A, V domains shown)
VH: QVQLVQSGAEVKKPGSSVKVSCKASGYAFTSFLIEWVRQAPGQGLEWMGTSNPRTGGRKYKEKFRGRVTITADKSTSTAYMELSSLRSEDTAVYYCAREFFDYWGQGTTVTVSS
VL: DIQMTQSPSSLSASVGDRVTITCRASKSISKYTAWYQQKPGKAPKLLIYAGSKLHWGVPSRFSGSGSGTDFTLTISSLQPEDFATYYCQQHNEYPYTFGGGTKVEIKR
B4: the % Inhibition was determined as 5.4% in assay [5]; 59.3% in assay [6]; 84.9% in [7]; 13.4% in assay [8]; 95.3% in [9]. Further, the EC50 (nM); inhibition of hepcidin induced ferritin increase in Caco-2 cells in [1] turned out to be 37 nM. In assay [3], the “Absolute IC50” value came to 5.7 nM. Also, the “Relative IC50” value in [3] turned out to be 4.7 nM. The “Top % Inhibition” value in [3] is 85.9%.

B5: Mab 3D8 (antibody, human IgG4 S228P, kappa, F234A L235A, V domains shown)
VH: QVQLVQSGAEVKKPGSSVKVSCKASGYAFTSFLIEWVRQAPGQGLEWMGTSNPRTGGTKYKEKFRGRVTITADKSTSTAYMELSSLRSEDTAVYYCAREFFDYWGQGTTVTVSS
VL: DIQMTQSPSSLSASVGDRVTITCRASKSISKYTAWYQQKPGKAPKLLIYAGSKLHSGVPSRFSGSGSGTDFTLTISSLQPEDFATYYCQQHNEYPYTFGGGTKVEIKR
As for B5, in [2], the “Percent (%) Inhibition … at 7.4 nM” value is 28.1%; the “Percent (%) Inhibition … at 22 nM” value is 50.2%; the “Percent (%) Inhibition … at 67 nM” value stood at 55.7%; the “Percent (%) Inhibition … at 200 nM” value is 63.8%. The “Percent (%) Inhibition … at 600 nM” value in assay [2] is 66.4%. Also, in assay [1], the “EC50 (nM); inhibition of hepcidin induced ferritin increase in Caco-2 cells” value was determined as 360 nM. Moreover, in assay [3], the “Absolute IC50” value stood at 13.7 nM; the “Relative IC50” value is 10.2 nM; the “Top % Inhibition” value was 86.8%.

B6: Mab L2.2-4 (antibody, human IgG4 S228P, kappa, F234A L235A, V domains shown)
VH: QVQLVQSGAEVKKPGSSVKVSCKASGYAFTSFLIEWVRQAPGQGLEWMGTSNPRTGGRKYKEKFRGRVTITADKSTSTAYMELSSLRSEDTAVYYCAREFFDYWGQGTTVTVSS
VL: DIQMTQSPSSLSASVGDRVTITCRASKSISKYTAWYQQKPGKAPKLLIYAGSKLRSGVPSRFSGSGSGTDFTLTISSLQPEDFATYYCQQHNEYPYTFGGGTKVEIKR
Take B6: the % Inhibition was -0.1% in assay [5]; 76.5% in assay [6]; 99.8% in [7]; 27.5% in assay [8]; 85.1% in assay [9]. Also, in assay [1], the EC50 (nM); inhibition of hepcidin induced ferritin increase in Caco-2 cells was found to be 193 nM. In addition, in assay [3], the “Absolute IC50” value was found to be 6.2 nM. Besides, the “Relative IC50” value in assay [3] stood at 4.8 nM. In [3], the “Top % Inhibition” value was determined as 81.6%.

B7: Mab Combi11 (antibody, human IgG4 S228P, kappa, F234A L235A, V domains shown)
VH: QVQLVQSGAEVKKPGSSVKVSCKASGYAFTSFLIEWVRQAPGQGLEWMGTSNPRTGRTKYKSKFRGRVTITADKSTSTAYMELSSLRSEDTAVYYCAREFFDYWGQGTTVTVSS
VL: DIQMTQSPSSLSASVGDRVTITCRASKSISKYTAWYQQKPGKAPKLLIYAGSKRHWGVPSRFSGSGSGTDFTLTISSLQPEDFATYYCQQHNEYPYTFGGGTKVEIKR
As for B7, the % Inhibition in assay [5] amounted to 18.7%; in [6], 88.4%; in [7], 81.6%; in assay [8], 32.1%; in [9], 79.9%. For the same molecule, in assay [1], the EC50 (nM); inhibition of hepcidin induced ferritin increase in Caco-2 cells was found to be 28 nM. Moreover, the “Absolute IC50” value in assay [3] came to 3.8 nM. For the same molecule, in assay [3], the “Relative IC50” value is 3.7 nM. Also, the “Top % Inhibition” value in [3] was 92.6%.
